{
  "source": "patent US5686592",
  "about": "“High-affinity oligonucleotide ligands to immunoglobulin E (IgE)” (NeXstar Pharmaceuticals, Inc.)",
  "binders": {"B1": {"name": "D17.0 (ssDNA)", "DNA": "CTACCTACGATCTGACTAGCCAATGAGTGTACCACGTTTATCCGTCCCTCCTAGTGGCGTGCTTACTCTCATGTAGTTCC"}, "B2": {"name": "IGEL1.1 (ssRNA)", "RNA": "GGGAGGACGAUGCGGGUGUGAAUGGUGUUGUGAGGUUACUGUACUUCGGUGGCUGCAGACGACUCGCCCGA", "modifications": "2'-NH2 on all C and U"}, "B3": {"name": "IGEL48.1 (ssRNA)", "RNA": "GGGAGGACGAUGCGGGAGUGGGGCGAUGAGAGAGAUCAGAGAACUAGAAGUGAUACAAAAUCUGAGGUUGUUGCGCAGACGACUCGCCCGA", "modifications": "2'-NH2 on all C and U"}, "B4": {"name": "IGEL9.1 (ssRNA)", "RNA": "GGGAGGACGAUGCGGGCGGGGAACAGACGGCUCAGAGCGGCACGAUUGUCAGCCAGCAAUUAUAUCGUGUUGAUGCAGACGACUCGCCCGA", "modifications": "2'-NH2 on all C and U"}, "B5": {"name": "IGEL11.1 (ssRNA)", "RNA": "GGGAGGACGAUGCGGAACAGCACGAGUGUACCUAAGACAGGCGAUGGCACUCGUGGUCGAAAUCAUAUAGUGAUGCAGACGACUCGCCCGA", "modifications": "2'-NH2 on all C and U"}, "B6": {"name": "IGEL31.1 (ssRNA)", "RNA": "GGGAGGACGAUGCGGGUGUGAAUGGUGUUGUGAGGUUCUCGACUGUUUGUGUCUAGCCGUACUUUAGCCUCGGCCAGACGACUCGCCCGA", "modifications": "2'-NH2 on all C and U"}, "B7": {"name": "IGEL29.1 (ssRNA)", "RNA": "GGGAGGACGAUGCGGGUGUCAAUGGUGUUGCGAGGCAAAAAUAACCAGCGCAUAUUCUCGGCCAUGUUGGCGUGCAUACAGACGACUCGCCCGA", "modifications": "2'-NH2 on all C and U"}, "B8": {"name": "IGEL7.1 (ssRNA)", "RNA": "GGGAGGACGAUGCGGAGACGCGUGAACACUAGUAUCACAGUUAAGGAUGCGCGCAGACGACUCGCCCGA", "modifications": "2'-NH2 on all C and U"}, "B9": {"name": "IGEL5.1 (ssRNA)", "RNA": "GGGAGGACGAUGCGGGUAUCGGUACGUGUUGGCUUGGGAAGGGGUCCGACGGUGCAGACGACUCGCCCGA", "modifications": "2'-NH2 on all C and U"}, "B10": {"name": "IGEL25.1 (ssRNA)", "RNA": "GGGAGGACGAUGCGGGUGUGAAUGGUGUCGUGAGGACUUAUCAGGCUCCGUGGUGCAGACGACUCGCCCGA", "modifications": "2'-NH2 on all C and U"}, "B11": {"name": "IGEL8.1 (ssRNA)", "RNA": "GGGAGGACGAUGCGGACCGCCCGUCGAGGGCUAGGCGUAGAGUCUAACCGGUGCCAGACGACUCGCCCGA", "modifications": "2'-NH2 on all C and U"}, "B12": {"name": "IGEL44.1 (ssRNA)", "RNA": "GGGAGGACGAUGCGGGUGCGGGGCGAGUAUAUGAAACUUGGCUUGGUAAUGAUCAGAAGUAGUGAGAACUGGGUGCAGACGACUCGCCCGA", "modifications": "2'-NH2 on all C and U"}, "B13": {"name": "IGEL49.1 (ssRNA)", "RNA": "GGGAGGACGAUGCGGGUGUGGGGCGGAUAAUGAGUGAACAGAGUGAAAUUCCAGUGUAGCCAGACUGUGCUGUCGCAGACGACUCGCCCGA", "modifications": "2'-NH2 on all C and U"}, "B14": {"name": "IGEL2.1 (ssRNA)", "RNA": "GGGAGGACGAUGCGGGUGUGGGGCGAAUGAGAAACGUUACCAGGAAAUGCGACUGCAGACGACUCGCCCGA", "modifications": "2'-NH2 on all C and U"}, "B15": {"name": "IGEL13.1 (ssRNA)", "RNA": "GGGAGGACGAUGCGGGACGGGGGCGGAAUCAUGCAUGUGAGCGAACAGAGAGAGAGCCGUGUAUCCAUUCGUGGUCAGACGACUCGCCCGA", "modifications": "2'-NH2 on all C and U"}, "B16": {"name": "IGEL3.1 (ssRNA)", "RNA": "GGGAGGACGAUGCGGUCCAUCGAUUAGGCGGUCGUGCUGGUGUAGUGUGUAGUGGCAGACGACUCGCCCGA", "modifications": "2'-NH2 on all C and U"}, "B17": {"name": "IGEL10.1 (ssRNA)", "RNA": "GGGAGGACGAUGCGGGCCACGCGUGGUUAGGGAUCGCGGACAGCACAAAUCGAAUUUGAUUCGCACCUGGACGGUCAGACGACUCGCCCGA", "modifications": "2'-NH2 on all C and U"}, "B18": {"name": "IGEL4.1 (ssRNA)", "RNA": "GGGAGGACGAUGCGGACGGUAGUCUGGUAGGCGCUGUGACGGCGAGAAUCCGGACCAGACGACUCGCCCGA", "modifications": "2'-NH2 on all C and U"}},
  "data": [
    {"molecular_target": "T1, human IgE (Homo sapiens, UniProt P01854-1 P01854-1:1-428)", "test": "filter; modified PBS, 1 mM Mg2+, 37 C", "conditions": "tags: Athens Research Technology; chain copies: 2; label: 5' 32P; hairpin", "method": "(§1) Affinities of representative DNA ligands for human IgE were determined by nitrocellulose filter binding experiments and the K_Ds are listed in Table 7. […] Individual clones tested from this pool have affinities in the same range. The affinities were not expected to vary widely since the enriched DNA pool is very homogenous. Ligand D17.0 was picked for truncation experiments. […] However, the affinity could be restored to the level of the full-length ligand by the addition of a 4 basepair stem resulting in the 37 base truncate D17.4. It is possible that the stem in D17.1 is not stable enough to prevent the formation of an alternative secondary structure and that the additional base pair in D17.4 lock in the conformation necessary for IgE binding.", "units": {"Kd": "nM"}, "values": [
      {"binder": "GGGGCACGTTTATCCGTCCCTCCTAGTGGCGTGCCCC (ssDNA)", "note": "[D17.4]", "Kd": 10},
      {"binder": "CACGTTTATCCGTCCCTCCTAGTGGCGTG (ssDNA)", "note": "[D17.1]", "Kd": 82}
    ]},
    {"molecular_target": "T1, human IgE", "test": "filter; modified PBS, 1 mM Mg2+, 37 C", "conditions": "tags: Athens Research Technology; chain copies: 2; label: 5' 32P; stem-loop", "method": "as §1", "units": {"Kd": "nM"}, "values": [
      {"binder": "B1", "Kd": 9}
    ]},
    {"molecular_target": "T2, TAN IgE (chimeric: murine light chains and variable region, human heavy-chain constant region) (Mus musculus/Homo sapiens chimera, UniProt P01854-1 P01854-1:1-428)", "T2 chain": "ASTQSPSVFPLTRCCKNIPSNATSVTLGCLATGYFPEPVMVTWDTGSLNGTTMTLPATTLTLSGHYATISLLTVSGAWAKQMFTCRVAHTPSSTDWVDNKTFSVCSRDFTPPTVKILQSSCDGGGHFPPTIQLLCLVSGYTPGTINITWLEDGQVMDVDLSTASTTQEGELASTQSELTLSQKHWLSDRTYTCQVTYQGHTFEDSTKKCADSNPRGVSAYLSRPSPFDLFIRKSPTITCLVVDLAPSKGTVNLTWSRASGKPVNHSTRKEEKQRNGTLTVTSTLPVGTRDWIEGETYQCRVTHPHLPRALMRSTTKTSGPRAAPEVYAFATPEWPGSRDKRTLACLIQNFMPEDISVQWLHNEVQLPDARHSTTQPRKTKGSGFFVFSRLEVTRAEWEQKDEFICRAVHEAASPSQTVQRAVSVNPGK", "test": "inhibition; inhibits IgE binding to FceRI on RBL SX-38 cells, ELISA", "conditions": "tags: biotinylated in the receptor assay; gift of Dr. Kinet (NIH); chain copies: 2; label: 32P", "method": "Rat basophilic leukemia (RBL) cell-line SX-38 which expresses the α, β and γ subunits of the human FcεRI IgE receptor was plated at a concentration of 10^5 cells per well in 96 well flat-bottom microtiter plates. After overnight growth, the cells were washed three times in modified PBS and incubated for one hour at 37° C. in 30 μl of 1.5 μg/ml biotinylated TAN IgE. The cells were washed 3 more times and incubated in 30 μl of 1/100 dilution of horseradish peroxidase conjugated to avidin (Molecular Probes, Eugene, Oreg.) for one hour at 37° C. After three final washes, 30 μl of 3,3',5,5'-tetramethylbenzidine (TMB) substrate (Kirkegaard and Perry Laboratories, Gaithersburg, Md.) were added as a chromogenic substrate and the plate was immediately transferred to the microtiter plate reader (Bio-Tek Instruments, Winooski, Vt.) for analysis. The absorbance at 630 nm was measured every 60 sec over a time span of 15 min. The rate of color development is an indication of the extent of IgE binding to the FcεRI receptor and was determined from the linear part of absorbance versus time graphs (data not shown). […] The inhibition activities of the RNA ligands were determined using the following formula: […]", "units": {"Ki": "nM"}, "values": [
      {"binder": "GGGAGGACGAUGCGGGUGUGAAUGGUGUUGUGAGG (ssRNA, 2'-NH2 on all C and U)", "note": "[IGEL1.2]", "Ki": 21},
      {"binder": "B2", "Ki": 44}
    ]},
    {"molecular_target": "T2, TAN IgE (chimeric: murine light chains …)", "test": "inhibition; inhibits IgE binding to FceRI on RBL SX-38 cells, ELISA", "conditions": "tags: biotinylated in the receptor assay; gift of Dr. Kinet (NIH); chain copies: 2; label: 5' 32P; hairpin", "method": "(§2) A cell-based enzyme linked immunosorbent assay (ELISA) was used to measure the ability of the high-affinity DNA ligands to inhibit binding of IgE to the FcεRI receptor. Rat basophilic leukemia (RBL) cell-line SX-38 which expresses the α, β and γ subunits of the human FcεRI receptor was plated at a concentration of 10^5 cells per well in 96 well flat-bottom microtiter plates. After overnight growth, the cells were washed three times in modified PBS and incubated for one hour at 37° C. in 30 µl of 1.5 µg/ml biotinylated TAN IgE. The cells were washed 3 more times and incubated in 30 µl of 1/100 dilution of horseradish peroxidase (Molecular Probes, Eugene, Oreg.) conjugated to avidin for one hour at 37° C. After three final washes, 30 µl of 3,3',5,5'-tetramethylbenzidine (TMB) substrate, (Kirkegaard and Perry Laboratories, Gaithersburg, Md.) were added as a chromogenic substrate, and the plate was immediately transferred to the microtiter plate reader (Bio-Tek instruments, Winooski, Vt.) for analysis. The absorbance at 630 nm was measured every 60 seconds over a time span of 15 minutes. The rate of color development is an indication of the extent of IgE binding to the FcεRI receptor and was determined from the linear part of absorbance versus time graphs (data not shown). […] The inhibition activities of the RNA ligands were determined using the following formula: […]", "units": {"Ki": "nM"}, "values": [
      {"binder": "GGGGCACGTTTATCCGTCCCTCCTAGTGGCGTGCCCC (ssDNA)", "note": "[D17.4]", "Ki": "~40"}
    ]},
    {"molecular_target": "T2, TAN IgE (chimeric: murine light chains …)", "test": "inhibition; inhibits IgE binding to FceRI on RBL SX-38 cells, ELISA", "conditions": "tags: biotinylated in the receptor assay; gift of Dr. Kinet (NIH); chain copies: 2; label: 5' 32P; stem-loop", "method": "as §2", "units": {"Ki": "nM"}, "values": [
      {"binder": "B1", "Ki": "~40"}
    ]},
    {"molecular_target": "T2, TAN IgE (chimeric: murine light chains …)", "test": "filter; modified PBS, 1 mM Mg2+, 37 C", "conditions": "tags: biotinylated in the receptor assay; gift of Dr. Kinet (NIH); chain copies: 2; label: 32P", "method": "To test the specificity of the high-affinity interaction between the RNA ligands and human IgE, binding experiments were performed with different immunoglobulins as described in Example 1.\nIn order to localize which part of the IgE molecule the RNA ligands are contacting, binding experiments were carried out with a hybrid IgE molecule. The light chains and the variable region of this TAN IgE are murine derived, whereas the constant portion of the heavy chains are human.", "units": {"Kd": "nM"}, "values": [
      {"binder": "GGGAGGACGAUGCGGGUGUGAAUGGUGUUGUGAGG (ssRNA, 2'-NH2 on all C and U)", "note": "[IGEL1.2]", "Kd": 36},
      {"binder": "B2", "Kd": 77}
    ]},
    {"molecular_target": "T1, human IgE", "test": "filter; modified PBS, 1 mM Mg2+, 37 C", "conditions": "tags: Athens Research Technology; chain copies: 2; label: 32P", "units": {"Kd": "nM"}, "values": [
      {"binder": "GGGAGGACGAUGCGGGUGUGAAUGGUGUUGUGAGG (ssRNA, 2'-NH2 on all C and U)", "note": "[IGEL1.2]", "Kd": 19},
      {"binder": "B3", "Kd": 30},
      {"binder": "B4", "Kd": 105},
      {"binder": "B5", "Kd": 129},
      {"binder": "B6", "Kd": 134},
      {"binder": "B2", "Kd": 138},
      {"binder": "B7", "Kd": 141},
      {"binder": "B8", "Kd": 142},
      {"binder": "B9", "Kd": 145},
      {"binder": "B10", "Kd": 186},
      {"binder": "B11", "Kd": 225},
      {"binder": "B12", "Kd": 34},
      {"binder": "B13", "Kd": 39},
      {"binder": "B14", "Kd": 41},
      {"binder": "GGGAGGACGAUGCGGGUGUGGGGCG (ssRNA, 2'-NH2 on all C and U)", "note": "[IGEL2.2]", "Kd": 44},
      {"binder": "B15", "Kd": 50},
      {"binder": "B16", "Kd": 56},
      {"binder": "B17", "Kd": 69},
      {"binder": "B18", "Kd": 87}
    ]}
  ]
}
